The source of these data is IntAct's records for PubMed 21398607.

This assay deals with wasp_mouse Was (UniProt P70315).
Sequence of wasp_mouse Was (P70315 whole entry): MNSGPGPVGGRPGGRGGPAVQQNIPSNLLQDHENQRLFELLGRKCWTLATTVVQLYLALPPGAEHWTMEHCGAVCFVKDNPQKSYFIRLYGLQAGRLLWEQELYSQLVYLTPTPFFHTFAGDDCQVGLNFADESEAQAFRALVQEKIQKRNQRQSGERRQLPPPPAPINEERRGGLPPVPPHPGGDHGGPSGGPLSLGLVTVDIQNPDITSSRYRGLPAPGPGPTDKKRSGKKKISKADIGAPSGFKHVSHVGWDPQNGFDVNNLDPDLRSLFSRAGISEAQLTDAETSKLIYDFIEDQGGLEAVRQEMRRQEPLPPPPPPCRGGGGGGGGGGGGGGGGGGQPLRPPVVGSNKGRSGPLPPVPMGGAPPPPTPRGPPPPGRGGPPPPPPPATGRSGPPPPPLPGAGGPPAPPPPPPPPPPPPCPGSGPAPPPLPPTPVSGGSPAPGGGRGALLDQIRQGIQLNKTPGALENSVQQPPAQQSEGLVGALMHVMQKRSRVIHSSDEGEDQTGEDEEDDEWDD

Sequence of WAS/WASL-interacting protein family member 1 (Homo sapiens), O43516 S436A (O43516 whole entry S436A): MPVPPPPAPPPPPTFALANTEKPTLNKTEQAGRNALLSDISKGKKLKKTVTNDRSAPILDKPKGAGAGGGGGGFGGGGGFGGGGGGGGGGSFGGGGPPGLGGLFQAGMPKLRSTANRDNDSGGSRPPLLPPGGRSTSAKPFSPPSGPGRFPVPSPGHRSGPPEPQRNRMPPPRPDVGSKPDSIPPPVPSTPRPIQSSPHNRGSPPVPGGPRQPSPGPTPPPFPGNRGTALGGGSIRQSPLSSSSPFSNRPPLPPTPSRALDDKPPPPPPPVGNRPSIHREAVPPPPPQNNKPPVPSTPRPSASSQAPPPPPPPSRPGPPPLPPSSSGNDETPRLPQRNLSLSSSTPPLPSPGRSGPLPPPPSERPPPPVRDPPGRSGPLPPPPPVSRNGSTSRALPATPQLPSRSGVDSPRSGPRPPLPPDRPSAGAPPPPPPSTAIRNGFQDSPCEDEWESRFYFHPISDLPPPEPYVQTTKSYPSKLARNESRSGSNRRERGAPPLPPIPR

In the case of “WAS/WASL-interacting protein family member 1 (Homo sapiens), O43516 S436A”, the “effect of a mutation on the interaction” value is “disrupting interaction”.
